Publication PMC3836750, “A Novel Antibody Humanization Method Based on Epitopes Scanning and Molecular Dynamics Simulation” (PLoS ONE, 2013)

Columns and labels:
[1] = target: refined 1-17-2 antibody (humanized antibody with back mutation of the 5 key residues L38, L43, L45, L71 and H77) (rat | human); test: SPR; BIACORE T200, CM5 chip; antibody captured on immobilized anti-human IgG (Fc) (human antibody capture kit); DEC-S solution passed through, 6 concentrations; regeneration 3 M magnesium chloride; KD = kd/ka
DEC-205 protein (DEC-S) [2] = target: T1, DEC-205 protein (DEC-S) (Homo sapiens, UniProt O60449); test: SPR; BIACORE T200, CM5 chip; murine (rat) antibody immobilized by amine coupling; DEC-205 protein 500 to 15.625 nM, 240 sec injection at 30 µl/min, 600 sec dissociation; regeneration Glycine-HCl pH 2.5; KD = kd/ka; conditions: both partners purified
T1 construct: DEC-205 protein in solution (DEC-S) used as SPR analyte; DEC-S is probably a soluble form of DEC-205

DEC-205 protein (DEC-S) [3] = target: T1, DEC-205 protein (DEC-S); test: SPR; BIACORE T200, CM5 chip; antibody captured on immobilized anti-human IgG (Fc) (human antibody capture kit); DEC-S solution passed through, 6 concentrations; regeneration 3 M magnesium chloride; KD = kd/ka; conditions: both partners purified

T1 sequence (O60449 28-1722): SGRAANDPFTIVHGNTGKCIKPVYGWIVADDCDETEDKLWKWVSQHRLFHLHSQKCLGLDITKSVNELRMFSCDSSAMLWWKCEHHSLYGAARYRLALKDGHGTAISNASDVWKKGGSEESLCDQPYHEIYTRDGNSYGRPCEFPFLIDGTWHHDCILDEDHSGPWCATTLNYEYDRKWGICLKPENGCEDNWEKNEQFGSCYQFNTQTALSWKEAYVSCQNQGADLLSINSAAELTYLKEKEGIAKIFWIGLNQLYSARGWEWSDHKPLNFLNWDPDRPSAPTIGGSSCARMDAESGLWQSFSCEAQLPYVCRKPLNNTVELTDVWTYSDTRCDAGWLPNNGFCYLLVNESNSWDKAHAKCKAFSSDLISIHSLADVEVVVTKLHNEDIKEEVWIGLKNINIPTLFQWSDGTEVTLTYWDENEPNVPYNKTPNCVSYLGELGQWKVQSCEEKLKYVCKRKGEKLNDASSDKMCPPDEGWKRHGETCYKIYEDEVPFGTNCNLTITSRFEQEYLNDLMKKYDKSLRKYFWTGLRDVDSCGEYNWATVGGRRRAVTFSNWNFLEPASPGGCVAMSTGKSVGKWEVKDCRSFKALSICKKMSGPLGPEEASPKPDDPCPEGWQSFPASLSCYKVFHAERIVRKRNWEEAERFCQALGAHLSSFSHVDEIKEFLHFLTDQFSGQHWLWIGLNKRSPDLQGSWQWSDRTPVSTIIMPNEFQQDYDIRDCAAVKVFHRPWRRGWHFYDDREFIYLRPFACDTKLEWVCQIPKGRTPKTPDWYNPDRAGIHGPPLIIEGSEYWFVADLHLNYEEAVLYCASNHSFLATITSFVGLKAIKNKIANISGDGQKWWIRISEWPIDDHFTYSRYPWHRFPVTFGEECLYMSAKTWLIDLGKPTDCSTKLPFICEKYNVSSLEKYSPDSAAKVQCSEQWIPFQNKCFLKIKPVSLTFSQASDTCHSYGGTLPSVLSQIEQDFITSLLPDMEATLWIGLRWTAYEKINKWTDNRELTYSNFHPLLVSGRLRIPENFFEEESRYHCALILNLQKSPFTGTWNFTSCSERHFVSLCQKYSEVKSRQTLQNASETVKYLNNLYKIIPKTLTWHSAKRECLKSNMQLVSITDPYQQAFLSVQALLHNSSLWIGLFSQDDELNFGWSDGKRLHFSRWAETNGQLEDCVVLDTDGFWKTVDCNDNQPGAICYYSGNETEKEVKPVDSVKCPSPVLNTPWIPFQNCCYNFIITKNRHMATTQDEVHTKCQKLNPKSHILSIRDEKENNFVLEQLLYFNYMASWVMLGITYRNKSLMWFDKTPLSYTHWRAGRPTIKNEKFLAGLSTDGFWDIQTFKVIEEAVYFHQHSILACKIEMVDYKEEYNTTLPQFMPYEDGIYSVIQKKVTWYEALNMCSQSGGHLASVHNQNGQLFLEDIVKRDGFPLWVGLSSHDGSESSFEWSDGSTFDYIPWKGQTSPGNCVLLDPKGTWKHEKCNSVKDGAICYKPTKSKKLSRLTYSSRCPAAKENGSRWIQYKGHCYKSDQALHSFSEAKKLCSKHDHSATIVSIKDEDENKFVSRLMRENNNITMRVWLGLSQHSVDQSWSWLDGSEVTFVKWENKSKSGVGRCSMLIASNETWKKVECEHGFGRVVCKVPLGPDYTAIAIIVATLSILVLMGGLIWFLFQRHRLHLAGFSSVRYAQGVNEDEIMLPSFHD

Row | Molecule | Kd (DEC-205 protein (DEC-S) [3]) | koff (DEC-205 protein (DEC-S) [3]) | kon (DEC-205 protein (DEC-S) [3]) | also measured
1 | DEC-205 protein (DEC-S) (from UniProt O60449 28-1722) (receptor) |  |  |  | Kd [1]: 16.7 nM; koff [1]: 0.000137 s⁻¹; kon [1]: 8220 M⁻¹ s⁻¹
2 | 1-17-2 rat anti-human DEC-205 monoclonal antibody (antibody, V domains shown, VH of rat antibody 1-17-2; rat IgG1 heavy chain constant region (isotype IgG1 stated); VL of rat antibody 1-17-2; rat kappa light chain constant region (isotype kappa stated); Rat IgG1, kappa; also called Rat Ab; rat mAb; source: expressed in vitro and purified; hybridoma 1-17-2 from rats immunized with DEC-1-YB2/0 cells) VH: EVQLVESGGGLVQPGRSLKLSCAASGFTFSHYYMAWVRQAPTKGLEWVAYISTDGGTTYYRDSVKGRFTISRDNARSTLYLQVDSLRSEDTATYYCTTGQPGYNLDYFDYWGQGVMVTVSS VL: DIQMTQSPASLSASLEEIVTITCQASQDIGYWLAWYQLKPGKSPQLLIYGATSLADGVSSRFSGSRSGTQYSLKISRLQVEDIGIYYCQQASSVPWTFGGGTKLELK |  |  |  | Kd (DEC-205 protein (DEC-S) [2]): 29.7 nM; koff (DEC-205 protein (DEC-S) [2]): 0.000185 s⁻¹; kon (DEC-205 protein (DEC-S) [2]): 6290 M⁻¹ s⁻¹
3 | chimeric 1-17-2 antibody (variable regions of 1-17-2 with constant regions of a human antibody) (antibody, V domains shown, as the VH of m1; human heavy chain constant region contained in the MH vector; as the VL of m1; human light chain constant region contained in the MK vector; Captured by anti-human IgG (Fc) in SPR, so a human IgG; Vectors MH and MK from Dr. Linqi Zhang; also called Chi Ab; chimeric antibody) VH: EVQLVESGGGLVQPGRSLKLSCAASGFTFSHYYMAWVRQAPTKGLEWVAYISTDGGTTYYRDSVKGRFTISRDNARSTLYLQVDSLRSEDTATYYCTTGQPGYNLDYFDYWGQGVMVTVSS VL: DIQMTQSPASLSASLEEIVTITCQASQDIGYWLAWYQLKPGKSPQLLIYGATSLADGVSSRFSGSRSGTQYSLKISRLQVEDIGIYYCQQASSVPWTFGGGTKLELK | 35.4 nM | 0.000273 s⁻¹ | 8040 M⁻¹ s⁻¹ | 
4 | humanized 1-17-2 antibody (30 mutations based on the chimeric antibody) (antibody, V domains shown, human heavy chain constant region contained in the MH vector; human light chain constant region contained in the MK vector; Humanized VL and VH fragments were synthesized; also called Hu Ab; humanized antibody) VH: EVQLVESGGGLVQPGRSLRLSCAASGFTFSHYYMAWVRQAPGKGLEWVAYISTDGGTTYYRDSVKGRFTISRDNSKNTLYLQMNSLRSEDTAVYYCTTGQPGYNLDYFDYWGQGTLVTVSS VL: DIQMTQSPSSLSASVGDRVTITCQASQDIGYWLAWYQQKPGKAPKLLIYGATSLADGVPSRFSGSGSGTDFTLTISSLQPEDFATYYCQQASSVPWTFGGGTKLEIK | 373 nM | 0.00105 s⁻¹ | 2930 M⁻¹ s⁻¹ | 
